Laboratory results taken from PMC3864901, “A Conserved Sequence Extending Motif III of the Motor Domain in the Snf2-Family DNA Translocase Rad54 Is Critical for ATPase Activity” (PLoS ONE, 2013).

B1: Rad54 (Saccharomyces cerevisiae S288C) (protein)
chain: MARRRLPDRPPNGIGAGERPRLVPRPINVQDSVNRLTKPFRVPYKNTHIPPAAGRIATGSDNIVGGRSLRKRSATVCYSGLDINADEAEYNSQDISFSQLTKRRKDALSAQRLAKDPTRLSHIQYTLRRSFTVPIKGYVQRHSLPLTLGMKKKITPEPRPLHDPTDEFAIVLYDPSVDGEMIVHDTSMDNKEEESKKMIKSTQEKDNINKEKNSQEERPTQRIGRHPALMTNGVRNKPLRELLGDSENSAENKKKFASVPVVIDPKLAKILRPHQVEGVRFLYRCVTGLVMKDYLEAEAFNTSSEDPLKSDEKALTESQKTEQNNRGAYGCIMADEMGLGKTLQCIALMWTLLRQGPQGKRLIDKCIIVCPSSLVNNWANELIKWLGPNTLTPLAVDGKKSSMGGGNTTVSQAIHAWAQAQGRNIVKPVLIISYETLRRNVDQLKNCNVGLMLADEGHRLKNGDSLTFTALDSISCPRRVILSGTPIQNDLSEYFALLSFSNPGLLGSRAEFRKNFENPILRGRDADATDKEITKGEAQLQKLSTIVSKFIIRRTNDILAKYLPCKYEHVIFVNLKPLQNELYNKLIKSREVKKVVKGVGGSQPLRAIGILKKLCNHPNLLNFEDEFDDEDDLELPDDYNMPGSKARDVQTKYSAKFSILERFLHKIKTESDDKIVLISNYTQTLDLIEKMCRYKHYSAVRLDGTMSINKRQKLVDRFNDPEGQEFIFLLSSKAGGCGINLIGANRLILMDPDWNPAADQQALARVWRDGQKKDCFIYRFISTGTIEEKIFQRQSMKMSLSSCVVDAKEDVERLFSSDNLRQLFQKNENTICETHETYHCKRCNAQGKQLKRAPAMLYGDATTWNHLNHDALEKTNDHLLKNEHHYNDISFAFQYISH
notes: wild-type yeast Rad54, overexpressed in S. cerevisiae and purified as in earlier work

Tests used:
[1] = tested on: Rad54 (Saccharomyces cerevisiae); assay: EMSA (glutaraldehyde-fixed, agarose); conditions: 13 mM Mg acetate, 25 mM TEA-Ac pH 7.5, 13 mM Mg acetate, 1.8 mM DTT, 100 ug/ml BSA, 11.25% glycerol, 113 mM NaCl, 30 uM bp pUC19, 30 C 15 min, then 0.25% glutaraldehyde 15 min …
[2] = substrate: Nc1ncnc2c1ncn2[C@@H]1O[C@H](COP(=O)(O)OP(=O)(O)OP(=O)(O)O)[C@@H](O)[C@H]1O; assay: NADH-coupled ATPase assay, Michaelis-Menten fit; type: biochemical, Saccharomyces cerevisiae; conditions: 1.5 uM pUC19 dsDNA, 2.5 mM free Mg(OAc)2, 25 mM HEPES pH 7.5, 30 C, 5 nM Rad54
From the text: NADH-coupled ATPase assay, Michaelis-Menten fit on Rad54 | Michaelis-Menten parameters of Rad54 and Rad54-2A as determined from the ATP titrations in B

Molecule	binding (bp per Rad54 monomer (all DNA bound)) ([1]; 5 mM ATP + regeneration system)	binding (bp per Rad54 monomer (all DNA bound)) ([1]; no nucleotide)	Km [2]	kcat [2]
pUC19 supercoiled dsDNA	36	36	–	–
B1	–	–	170 ± 40 µM	1,219 ± 45 min-1
